{"source": "patent US20080176285", "key": {"RNAse B": {"biological_target": "RNAse B (UniProt P61823)", "sequence (P61823 27-150)": "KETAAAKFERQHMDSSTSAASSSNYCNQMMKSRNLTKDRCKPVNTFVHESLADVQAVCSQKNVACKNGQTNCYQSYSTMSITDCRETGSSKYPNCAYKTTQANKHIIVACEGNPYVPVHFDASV"}, "porcine uteroferrin": {"biological_target": "porcine uteroferrin (UniProt P09889)", "sequence (P09889 22-340)": "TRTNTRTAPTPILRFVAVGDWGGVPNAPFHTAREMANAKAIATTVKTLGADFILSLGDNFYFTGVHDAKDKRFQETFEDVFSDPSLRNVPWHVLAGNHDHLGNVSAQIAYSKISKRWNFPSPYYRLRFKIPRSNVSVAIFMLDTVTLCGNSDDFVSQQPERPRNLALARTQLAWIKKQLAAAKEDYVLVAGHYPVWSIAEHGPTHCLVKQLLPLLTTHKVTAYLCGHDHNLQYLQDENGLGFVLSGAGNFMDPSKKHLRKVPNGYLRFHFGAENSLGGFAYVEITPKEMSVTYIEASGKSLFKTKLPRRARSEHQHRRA"}}, "data": [{"substance": "bovine GlcNAc-phosphotransferase (UDP-N-acetylglucosamine: lysosomal enzyme N-acetylglucosamine-1-phosphotransferase)", "values": [{"measurement": "Km as acceptor for the transfer of GlcNAc-1-P", "setting": "RNAse B", "result": "the Km was not reached at the solubility limit of the protein (at 600 µM)"}, {"measurement": "Km as acceptor for the transfer of GlcNAc-1-P", "setting": "cathepsin D", "result": "Kms below 20 µM"}, {"measurement": "Km as acceptor for the transfer of GlcNAc-1-P", "setting": "porcine uteroferrin", "result": "Kms below 20 µM"}]}]}
